Measured values published in US20230272055A1 (Incyte, published 2023).
Substitutions are numbered along the chain they refer to.

T1: human mutCALR on BaF3 cells stably expressing human MPL and human mutCALR (MPL-mutCALR cells) (human)
T1 construct: also called mutant calreticulin
T1 chain: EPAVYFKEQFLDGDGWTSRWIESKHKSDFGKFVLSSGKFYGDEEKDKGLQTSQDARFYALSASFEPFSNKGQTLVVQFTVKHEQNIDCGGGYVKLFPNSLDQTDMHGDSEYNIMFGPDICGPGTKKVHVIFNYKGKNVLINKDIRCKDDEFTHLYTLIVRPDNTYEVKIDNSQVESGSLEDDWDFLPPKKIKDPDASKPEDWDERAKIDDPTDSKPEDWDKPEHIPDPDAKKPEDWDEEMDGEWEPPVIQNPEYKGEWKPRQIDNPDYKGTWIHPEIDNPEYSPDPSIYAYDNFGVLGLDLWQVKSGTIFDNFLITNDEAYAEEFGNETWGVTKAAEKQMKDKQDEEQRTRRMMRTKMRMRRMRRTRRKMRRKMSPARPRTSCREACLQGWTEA

B1: anti-mutCALR antibody clone 172 (antibody, human IgG1, lambda, N297A, V domains shown)
VH: EVQLVQSGAEVKKPGASVKVSCKVSGYTLTELSMQWVRQAPGKGLEWMGGFDPDSGETMYAEKFQGRLTVTEDTSTDTVYMELRSLTSEDTALYFCATSPGYDFFDYWGQGTLVTVSS
VL: SYVLTQPPSVSVAPGQTARITCGGSDIGDEIVHWYQQKPGQAPVLVVYDDSDRPSGIPERFSGSNSGNTATLTISRAQAGDEADYYCQVWDSSSDHLIFGGGTKLTVLG
B2: anti-mutCALR antibody clone 173 (antibody, human IgG1, lambda, N297A, V domains shown)
VH: B1 VH with S55E
VL: B1 VL
B3: anti-mutCALR antibody clone 174 (antibody, human IgG1, lambda, N297A, V domains shown)
VH: B1 VH with S55D, G56A
VL: B1 VL
B4: anti-mutCALR antibody clone 181 (antibody, human IgG1, lambda, N297A, V domains shown)
VH: B1 VH with S55A
VL: B1 VL with A77V, Q78E
B5: anti-mutCALR antibody clone 182 (antibody, human IgG1, lambda, N297A, V domains shown)
VH: B1 VH
VL: B1 VL with A77V, Q78E
B6: anti-mutCALR antibody clone 183 (antibody, human IgG1, lambda, N297A, V domains shown)
VH: B1 VH with S55E
VL: B1 VL with A77V, Q78E
B7: anti-mutCALR antibody clone 184 (antibody, human IgG1, lambda, N297A, V domains shown)
VH: B1 VH with S55D, G56A
VL: B1 VL with A77V, Q78E
B8: anti-mutCALR antibody clone 186 (antibody, human IgG1, lambda, N297A, V domains shown)
VH: B1 VH with S55A, R84S, T87R, L93V
VL: B1 VL with A77V, Q78E
B9: anti-mutCALR antibody clone 187 (antibody, human IgG1, lambda, N297A, V domains shown)
VH: B1 VH with R84S, T87R, L93V
VL: B1 VL with A77V, Q78E
B10: anti-mutCALR antibody clone 188 (antibody, human IgG1, lambda, N297A, V domains shown)
VH: B1 VH with S55E, R84S, T87R, L93V
VL: B1 VL with A77V, Q78E
B11: anti-mutCALR antibody clone 189 (antibody, human IgG1, lambda, N297A, V domains shown)
VH: B1 VH with S55D, G56A, R84S, T87R, L93V
VL: B1 VL with A77V, Q78E
B12: anti-mutCALR antibody clone 55 (antibody, human IgG1, lambda, N297A)
heavy: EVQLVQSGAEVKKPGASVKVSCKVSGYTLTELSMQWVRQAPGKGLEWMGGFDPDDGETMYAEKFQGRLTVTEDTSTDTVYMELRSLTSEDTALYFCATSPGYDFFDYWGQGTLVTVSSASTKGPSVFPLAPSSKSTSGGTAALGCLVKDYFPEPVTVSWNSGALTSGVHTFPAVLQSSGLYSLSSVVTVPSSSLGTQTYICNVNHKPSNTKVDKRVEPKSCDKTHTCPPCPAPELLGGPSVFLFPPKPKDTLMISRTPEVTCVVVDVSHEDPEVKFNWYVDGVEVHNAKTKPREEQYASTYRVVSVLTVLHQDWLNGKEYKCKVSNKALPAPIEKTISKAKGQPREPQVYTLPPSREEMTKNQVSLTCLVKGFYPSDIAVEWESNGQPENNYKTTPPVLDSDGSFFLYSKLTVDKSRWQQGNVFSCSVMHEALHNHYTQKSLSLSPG
light: QSALTQPASVSGSPGQSITISCTGTSSDVGGYNYVSWYQQHPGKAPKLMIYEVSNRPSGVSNRFSGSNSGNTATLTINRVEAGDEADYYCQVWDSSNDLLIFGGGTKLTVLGQPKAAPSVTLFPPSSEELQANKATLVCLISDFYPGAVTVAWKADSSPVKAGVETTTPSKQSNNKYAASSYLSLTPEQWKSHRSYSCQVTHEGSTVEKTVAPTECS
notes: also called antibody 55
B13: anti-mutCALR antibody clone 56 (antibody, human IgG1, lambda, N297A, V domains shown)
VH: B1 VH with S55A
VL: QSALTQPASVSGSPGQSITISCTGTSSDVGGYNYVSWYQQHPGKAPKLMIYEVSNRPSGVSNRFSGSNSGNTATLTINRVEAGDEADYYCQVWDSSNDLLIFGGGTKLTVLG
B14: anti-mutCALR antibody clone 58 (antibody, human IgG1, lambda, N297A, V domains shown)
VH: B1 VH with S55E
VL: B13 VL
B15: anti-mutCALR antibody clone 59 (antibody, human IgG1, lambda, N297A, V domains shown)
VH: B1 VH with S55D, G56A
VL: B13 VL
B16: anti-mutCALR antibody clone 61 (antibody, human IgG1, lambda, N297A, V domains shown)
VH: B1 VH with S55A, R84S, T87R, L93V
VL: B13 VL
B17: anti-mutCALR antibody clone 62 (antibody, human IgG1, lambda, N297A, V domains shown)
VH: B1 VH with R84S, T87R, L93V
VL: B13 VL
B18: anti-mutCALR antibody clone 63 (antibody, human IgG1, lambda, N297A, V domains shown)
VH: B1 VH with S55E, R84S, T87R, L93V
VL: B13 VL
B19: anti-mutCALR antibody clone 64 (antibody, human IgG1, lambda, N297A, V domains shown)
VH: B1 VH with S55D, G56A, R84S, T87R, L93V
VL: B13 VL
B20: anti-mutCALR antibody clone 70 (antibody, human IgG1, lambda, N297A, V domains shown)
VH: B1 VH with S55D, R84S, T87R, L93V
VL: SYVLTQPPSVSVAPGKTARITCTGTSSDVGGYNYVSWYQQKPGQAPVLVVYEVSNRPSGIPERFSGSNSGNTATLTISRVEAGDEADYYCQVWDSSNDLLIFGGGTKLTVLG
B21: anti-mutCALR antibody clone 65 (antibody, human IgG1, lambda, N297A, V domains shown)
VH: B1 VH with S55D
VL: B20 VL
B22: anti-mutCALR antibody clone 66 (antibody, human IgG1, lambda, N297A, V domains shown)
VH: B1 VH with S55A
VL: B20 VL
B23: anti-mutCALR antibody clone 67 (antibody, human IgG1, lambda, N297A, V domains shown)
VH: B1 VH
VL: B20 VL
B24: anti-mutCALR antibody clone 68 (antibody, human IgG1, lambda, N297A, V domains shown)
VH: B1 VH with S55E
VL: B20 VL
B25: anti-mutCALR antibody clone 69 (antibody, human IgG1, lambda, N297A, V domains shown)
VH: B1 VH with S55D, G56A
VL: B20 VL
B26: anti-mutCALR antibody clone 71 (antibody, human IgG1, lambda, N297A, V domains shown)
VH: B1 VH with S55A, R84S, T87R, L93V
VL: B20 VL
B27: anti-mutCALR antibody clone 72 (antibody, human IgG1, lambda, N297A, V domains shown)
VH: B1 VH with R84S, T87R, L93V
VL: B20 VL
B28: anti-mutCALR antibody clone 73 (antibody, human IgG1, lambda, N297A, V domains shown)
VH: B1 VH with S55E, R84S, T87R, L93V
VL: B20 VL
B29: anti-mutCALR antibody clone 74 (antibody, human IgG1, lambda, N297A, V domains shown)
VH: B1 VH with S55D, G56A, R84S, T87R, L93V
VL: B20 VL
B30: anti-mutCALR antibody clone 179 (antibody, human IgG1, lambda, N297A, V domains shown)
VH: B1 VH with S55D, G56A, R84S, T87R, L93V
VL: B1 VL
B31: anti-mutCALR antibody clone 178 (antibody, human IgG1, lambda, N297A, V domains shown)
VH: B1 VH with S55E, R84S, T87R, L93V
VL: B1 VL
B32: anti-mutCALR antibody clone 177 (antibody, human IgG1, lambda, N297A, V domains shown)
VH: B1 VH with R84S, T87R, L93V
VL: B1 VL
B33: anti-mutCALR antibody clone 176 (antibody, human IgG1, lambda, N297A, V domains shown)
VH: B1 VH with S55A, R84S, T87R, L93V
VL: B1 VL

Molecular target: T1, human mutCALR on BaF3 cells stably …
Assay: flow cytometry, BaF3 MPL-mutCALR cells
Experimental: On the day of the assay, cells were washed and resuspended in assay buffer. Approximately 200,000 cells/well were added to 96-well plates and stained with the indicated concentration of antibodies for 30 minutes on ice. Cells were then washed and stained with goat anti-human secondary conjugated to R-phycoerythrin (R-PE) (Jackson Immuno Research Laboratories) for 30 minutes on ice. The cells were then washed and analyzed by flow cytometry.
In the case of B1, the EC50 is reported as 12.4 ng/mL and the “MPL-mutCALR AUC” value is reported as 53600. With B2 the EC50 was 4.3 ng/mL and the “MPL-mutCALR AUC” value was 67300. In the case of B3, the EC50 is reported as 4 ng/mL and the “MPL-mutCALR AUC” value is reported as 63500. With B4 the EC50 was 3.5 ng/mL and the “MPL-mutCALR AUC” value was 55600. In the case of B5, the EC50 is reported as 5.2 ng/mL and the “MPL-mutCALR AUC” value is reported as 52100. In the case of B6, the EC50 is reported as 5 ng/mL and the “MPL-mutCALR AUC” value is reported as 70700. With B7 the EC50 was 6.3 ng/mL and the “MPL-mutCALR AUC” value was 61600. In the case of B8, the EC50 is reported as 3.9 ng/mL and the “MPL-mutCALR AUC” value is reported as 53000. With B9 the EC50 was 3.5 ng/mL and the “MPL-mutCALR AUC” value was 49500. For B10, the EC50 was 4.4 ng/mL and the “MPL-mutCALR AUC” value was 68000. B11 was tested, and the EC50 was 10 ng/mL and the “MPL-mutCALR AUC” value was 57200. For B12, the EC50 was 10.1 ng/mL and the “MPL-mutCALR AUC” value was 73100. With B13 the EC50 was 6.9 ng/mL and the “MPL-mutCALR AUC” value was 64400. In the case of B14, the EC50 is reported as 8.6 ng/mL and the “MPL-mutCALR AUC” value is reported as 69800. B15 was tested, and the EC50 was 7.7 ng/mL and the “MPL-mutCALR AUC” value was 75700. For B16, the EC50 was 6.3 ng/mL and the “MPL-mutCALR AUC” value was 62400. In the case of B17, the EC50 is reported as 5.4 ng/mL and the “MPL-mutCALR AUC” value is reported as 58800. With B18 the EC50 was 5.5 ng/mL and the “MPL-mutCALR AUC” value was 69100. In the case of B19, the EC50 is reported as 7.2 ng/mL and the “MPL-mutCALR AUC” value is reported as 73200. B20 was tested, and the EC50 was 1.9 ng/mL and the “MPL-mutCALR AUC” value was 84800. For B21, the EC50 was 5.9 ng/mL and the “MPL-mutCALR AUC” value was 81200. In the case of B22, the EC50 is reported as 5.8 ng/mL and the “MPL-mutCALR AUC” value is reported as 65000. For B23, the EC50 was 8.1 ng/mL and the “MPL-mutCALR AUC” value was 63900. For B24, the EC50 was 3.3 ng/mL and the “MPL-mutCALR AUC” value was 68700. B25 was tested, and the EC50 was 2.1 ng/mL and the “MPL-mutCALR AUC” value was 71800. For B26, the EC50 was 9.7 ng/mL and the “MPL-mutCALR AUC” value was 55900. With B27 the EC50 was 3.3 ng/mL and the “MPL-mutCALR AUC” value was 58000. B28 was tested, and the EC50 was 2 ng/mL and the “MPL-mutCALR AUC” value was 67600. B29 was tested, and the EC50 was 2.2 ng/mL and the “MPL-mutCALR AUC” value was 81800. For B30, the EC50 was 5.8 ng/mL and the “MPL-mutCALR AUC” value was 60200. With B31 the EC50 was 4.1 ng/mL and the “MPL-mutCALR AUC” value was 63600. For B32, the EC50 was 3.4 ng/mL and the “MPL-mutCALR AUC” value was 52900. B33 was tested, and the EC50 was 3.1 ng/mL and the “MPL-mutCALR AUC” value was 48400.
